What was measured:
human IL-33 WT (R&D) [1] = biological target: T1, human IL-33 WT (R&D) (human, UniProt O95760 112-270); assay: SPR, Fab captured by anti-human Fab kit, reduced IL-33 (R&D) in solution
T1 construct: R&D Systems Cat. No. 3625-IL/CF, wild-type cysteines; DTT pretreatment in some assays is said under assay or readout; also called IL-33 (R&D); hIL-33 (R&D)
T1 sequence: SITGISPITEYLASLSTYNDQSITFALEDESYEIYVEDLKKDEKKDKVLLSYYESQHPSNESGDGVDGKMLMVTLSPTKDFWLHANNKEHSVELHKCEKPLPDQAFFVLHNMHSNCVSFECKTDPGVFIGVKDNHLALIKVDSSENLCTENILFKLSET
Method: Fab fragment affinity was measured by two methods, surface plasmon resonance using a BIAcore instrument, with either Fab or IL-33 captured on the chip, and solution equilibrium affinity measurements using a KinExA instrument, with both Fab and IL-33 in solution.
Surface plasmon resonance experiments were conducted in two formats.

[2] = biological target: T2, human IL-33 WT, reduced with DTT (human, UniProt O95760 112-270); assay: KinExA, fixed-antigen format, both partners in solution
T2 construct: Wild-type cysteines, FLAG tag in the entry; reduced with 3 mM DTT before use; also called huIL33 wt; hu IL-33 (WT + DTT)
T2 sequence: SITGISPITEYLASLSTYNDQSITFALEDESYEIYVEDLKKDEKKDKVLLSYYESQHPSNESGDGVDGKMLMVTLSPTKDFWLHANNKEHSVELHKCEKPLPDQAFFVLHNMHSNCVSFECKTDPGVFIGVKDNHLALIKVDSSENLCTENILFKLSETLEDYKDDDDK
Method: (§1) HuIL33 wt was reduced in 3 mM DTT for a minimum of two hrs prior to use. Affinity determinations were made at room temperature using the fixed antigen assay format. Equilibrium binding was achieved by incubation at 25° C. for 72 hrs. Data analysis was performed with the KinExA Pro software version 3.6.5 (Sapidyne). […] The “drift correction” was used when appropriate. Multiple curves were obtained, both receptor and KD controlled, in independent experiments and analyzed using the “n-curve analysis” tool to obtain global best fit values for the KD and active concentration. The software reports each best fit value along with a 95% confidence interval.
(§2) Table 13. Affinity determinations were made using the fixed-antigen assay format. […] The 95% confidence interval, shown in parentheses with the kD, and percent error are calculated by KinExA software based on a least-squares fit of the theoretical binding equation to the measured signals.

human IL-33 (mm2) = biological target: T3, human IL-33 (mm2) (human, UniProt O95760 112-270); assay: as above
T3 construct: Variant in which all four cysteine residues are serine; the entry carries an N-terminal Met and a C-terminal His6; Biotinylated in some assays; also called hIL-33 (mm2); huIL-33 (mm2)
T3 chain: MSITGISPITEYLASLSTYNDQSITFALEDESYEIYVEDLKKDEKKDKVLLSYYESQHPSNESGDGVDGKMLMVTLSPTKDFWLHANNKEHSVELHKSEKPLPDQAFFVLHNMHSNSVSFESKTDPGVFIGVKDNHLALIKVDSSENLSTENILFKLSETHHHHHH
Method: as §1, §2

human IL-33 WT (R&D) [3] = biological target: T1, human IL-33 WT (R&D); assay: SPR, Fab captured by anti-human Fab kit, reduced IL-33 (R&D) in solution; captured Fab, reduced WT IL-33 in solution

B1: 7E8 CDR graft Fab (Fab, V domains shown)
VH: EVQLVESGGGLVQPGGSLRLSCAASGFTFSSYWMYWVRQAPGKGLEWVASITPNGGNTYYPDSVKGRFTISRDNAKNSLYLQMNSLRAEDTAVYYCARGHYYYTSYSLGYWGQGTLVTVSS
VL: DIQMTQSPSSLSASVGDRVTITCKASQNINKHLDWYQQKPGKAPKLLIYFTNNLQTGVPSRFSGSGSGTDFTLTISSLQPEDFATYYCFQYNNGWTFGGGTKVEIKR
notes: also called 7E8 Fab; CDR grafted-7E8 Fab
Kd (human IL-33 WT (R&D) [1]): 290 pM | koff (human IL-33 WT (R&D) [1]): 0.000377 s⁻¹ | Kd [2]: 4.04 pM | Kd (human IL-33 (mm2)): 0.351 pM | kon (human IL-33 WT (R&D) [3]): 2.06e+06 M⁻¹ s⁻¹

— patent US20180037644A1 (Pfizer, published 2018)
